# Measured values: US20090208473A1 (RUTGERS THE STATE UNIVERSITY OF NEW JERSEY, published 2009)
# Tests used:
# [1] = target: the molecule itself; test: oligomerization; Western blot without DTT of GFP-MG53 mutants from C2C12 cells
# Source text: These mutant constructs were transiently expressed in C2C12 myoblast cells (FIG. 22).
Molecule,"auto-ubiquitination in vitro (high molecular-mass ladders, anti-MBP immunoblot) (UbCH5)","auto-ubiquitination in vitro (high molecular-mass ladders, anti-MBP immunoblot) (Ubc4)",binding result [1]
MBP-MG53 (recombinant maltose-binding protein fusion protein for MG53),High molecular-mass ladders derived from ubiquitination were observed when MBP-MG53 was incubated with Ubc4 or UbCH5 as E2,High molecular-mass ladders derived from ubiquitination were observed when MBP-MG53 was incubated with Ubc4 or UbCH5 as E2,
"GFP-MG53 C242A mutant (other, mouse, UniProt Q1XH17 1-477, looked up, the plasmid methods describe mouse MG53 cDNA; also called GFP-C242A; not shown: GFP at the N-terminus) MSAAPGLLRQELSCPLCLQLFDAPVTAECGHSFCRACLIRVAGEPAADGTVACPCCQAPTRPQALSTNLQLSRLVEGLAQVPQGHCEEHLDPLSIYCEQDRTLVCGVCASLGSHRGHRLLPAAEAQARLKTQLPQQKMQLQEACMRKEKTVAVLEHQLVEVEETVRQFRGAVGEQLGKMRMFLAALESSLDREAERVRGDAGVALRRELSSLNSYLEQLRQMEKVLEEVADKPQTEFLMKFALVTSRLQKILSESPPPARLDIQLPVISDDFKFQVWKKMFRALMPALEELTFDPSSAHPSLVVSSSGRRVECSDQKAPPAGEDTRQFDKAVAVVAQQLLSQGEHYWEVEVGDKPRWALGVMAADASRRGRLHAVPSQGLWLLGLRDGKILEAHVEAKEPRALRTPERPPARIGLYLSFADGVLAFYDASNPDVLTPIFSFHERLPGPVYPIFDVCWHDKGKNAQPLLLVGPEQEQA",,,no binding
